Results taken from patent US20150203577A1 (Chugai, published 2015).
Residue numbers refer to the chain shown, from its start.

B1: MB002 (antibody, mouse IgG1, kappa)
heavy: QVQLQESGPGLVKPSETLSLTCAVSGHSISHDHAWSWVRQPPGEGLEWIGFISYSGITNYNPSLQGRVTISRDNSKNTLYLQMNSLRAEDTAVYYCARSLARTTAMDYWGEGTLVTVSSAKTTPPSVYPLAPGSAAQTNSMVTLGCLVKGYFPEPVTVTWNSGSLSSGVHTFPAVLQSDLYTLSSSVTVPSSTWPSETVTCNVAHPASSTKVDKKIVPRDCGCKPCICDVPEVSSVFIFPPKPKDVLTITLTPKVTCVVVDISKDDPEVQFSWFVDDVEVHTAQTQPREEQFNSTFRSVSELPIMHQDWLNGKEFKCRVNSAAFPAPIEKTISKTKGRPKAPQVYTIPPPKEQMAKDKVSLTCMITDFFPEDITVEWQWNGQPAENYKNTQPIMDTDGSYFVYSKLNVQKSNWEAGNTFTCSVLHEGLHNHHTEKSLSHSPGK
light: not shown
notes: copies: 2 + 2
B2: MB021 (antibody, mouse IgG1, kappa)
heavy: B1 heavy with D229T, V230E
light: not shown
notes: copies: 2 + 2
B3: MB052 (antibody, mouse IgG1, kappa)
heavy: B1 heavy with D229T, P231V
light: not shown
notes: copies: 2 + 2
B4: MB027 (antibody, mouse IgG1, kappa)
heavy: B1 heavy with D229T, V230L
light: not shown
notes: copies: 2 + 2
B5: MB054 (antibody, mouse IgG1, kappa)
heavy: B1 heavy with D229T, P231Y
light: not shown
notes: copies: 2 + 2
B6: MB102 (antibody, mouse IgG1, kappa)
heavy: B1 heavy with D229T, S234P
light: not shown
notes: copies: 2 + 2
B7: MB045 (antibody, mouse IgG1, kappa)
heavy: B1 heavy with D229T, P231L
light: not shown
notes: copies: 2 + 2
B8: MB039 (antibody, mouse IgG1, kappa)
heavy: B1 heavy with D229T, P231E
light: not shown
notes: copies: 2 + 2
B9: MB013 (antibody, mouse IgG1, kappa)
heavy: B1 heavy with D229Q
light: not shown
notes: copies: 2 + 2
B10: MB040 (antibody, mouse IgG1, kappa)
heavy: B1 heavy with D229T, P231F
light: not shown
notes: copies: 2 + 2
B11: MB028 (antibody, mouse IgG1, kappa)
heavy: B1 heavy with D229T, V230M
light: not shown
notes: copies: 2 + 2
B12: MB016 (antibody, mouse IgG1, kappa)
heavy: B1 heavy with D229V
light: not shown
notes: copies: 2 + 2
B13: MB031 (antibody, mouse IgG1, kappa)
heavy: B1 heavy with D229T, V230Q
light: not shown
notes: copies: 2 + 2
B14: MB111 (antibody, mouse IgG1, kappa)
heavy: B1 heavy with D229T, S235E
light: not shown
notes: copies: 2 + 2
B15: MB003 (antibody, mouse IgG1, kappa)
heavy: B1 heavy with D229E
light: not shown
notes: copies: 2 + 2
B16: MB034 (antibody, mouse IgG1, kappa)
heavy: B1 heavy with D229T, V230T
light: not shown
notes: copies: 2 + 2
B17: MB038 (antibody, mouse IgG1, kappa)
heavy: B1 heavy with D229T, P231D
light: not shown
notes: copies: 2 + 2
B18: MB037 (antibody, mouse IgG1, kappa)
heavy: B1 heavy with D229T, P231A
light: not shown
notes: copies: 2 + 2
B19: MB053 (antibody, mouse IgG1, kappa)
heavy: B1 heavy with D229T, P231W
light: not shown
notes: copies: 2 + 2
B20: MB093 (antibody, mouse IgG1, kappa)
heavy: B1 heavy with D229T, S234E
light: not shown
notes: copies: 2 + 2
B21: MB019 (antibody, mouse IgG1, kappa)
heavy: B1 heavy with D229T, V230A
light: not shown
notes: copies: 2 + 2
B22: MB025 (antibody, mouse IgG1, kappa)
heavy: B1 heavy with D229T, V230I
light: not shown
notes: copies: 2 + 2
B23: MB103 (antibody, mouse IgG1, kappa)
heavy: B1 heavy with D229T, S234Q
light: not shown
notes: copies: 2 + 2
B24: MB030 (antibody, mouse IgG1, kappa)
heavy: B1 heavy with D229T, V230P
light: not shown
notes: copies: 2 + 2
B25: MB020 (antibody, mouse IgG1, kappa)
heavy: B1 heavy with D229T, V230D
light: not shown
notes: copies: 2 + 2
B26: H237-MB520/MRAL-k0 (antibody)
heavy: B1 heavy with D229E, V230T, P231Y, S234E, S235W
light: not shown
notes: copies: 2 + 2
B27: H237-MB525/MRAL-k0 (antibody, mouse IgG1, kappa)
heavy: B1 heavy with D229Q, V230P, P231N, S234E, S235W
light: not shown
notes: copies: 2 + 2
B28: H237-MB522/MRAL-k0 (antibody, mouse IgG1, kappa)
heavy: B1 heavy with D229E, V230P, P231A, S234E, S235W
light: not shown
notes: copies: 2 + 2
B29: H237-MB518/MRAL-k0 (antibody, mouse IgG1, kappa)
heavy: B1 heavy with D229E, V230D, P231Y, S234E, S235W
light: not shown
notes: copies: 2 + 2
B30: H237-MB512/MRAL-k0 (antibody, mouse IgG1, kappa)
heavy: B1 heavy with D229E, P231Y, S234E, S235M
light: not shown
notes: copies: 2 + 2
B31: H237-MB514/MRAL-k0 (antibody, mouse IgG1, kappa)
heavy: B1 heavy with D229I, V230P, P231A, S234E, S235M
light: not shown
notes: copies: 2 + 2
B32: H237-MB517/MRAL-k0 (antibody, mouse IgG1, kappa)
heavy: B1 heavy with D229E, V230A, P231Y, S234E, S235W
light: not shown
notes: copies: 2 + 2
B33: H237-MB521/MRAL-k0 (antibody, mouse IgG1, kappa)
heavy: B1 heavy with D229E, P231Y, S234E, S235W
light: not shown
notes: copies: 2 + 2
B34: H237-MB523/MRAL-k0 (antibody, mouse IgG1, kappa)
heavy: B1 heavy with D229I, V230P, P231A, S234E, S235W
light: not shown
notes: copies: 2 + 2
B35: H237-MB516/MRAL-k0 (antibody, mouse IgG1, kappa)
heavy: B1 heavy with D229Q, V230P, P231N, S234E, S235M
light: not shown
notes: copies: 2 + 2

Molecular target: T1, mouse FcγRIII (mouse, UniProt P08508 31-215)
T1 construct: also called mFcγRIII; mFcgRIII
T1 chain: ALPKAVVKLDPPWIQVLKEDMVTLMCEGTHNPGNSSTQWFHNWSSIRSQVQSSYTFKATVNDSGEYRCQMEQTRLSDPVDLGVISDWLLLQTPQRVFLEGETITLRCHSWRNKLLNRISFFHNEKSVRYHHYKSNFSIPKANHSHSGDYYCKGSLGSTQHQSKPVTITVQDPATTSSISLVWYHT
Assay: SPR Biacore 4000, KD ratio
Protocol: (§1) Each altered antibody was analyzed for its interaction with each Fcγ receptor prepared above using Biacore T100 (GE Healthcare Japan Corp.), Biacore T200 (GE Healthcare Japan Corp.), Biacore A100, or Biacore 4000. The running buffer used was HBS-EP+ (GE Healthcare Japan Corp.). The assay temperature was set to 25° C. The sensor chips used were chips prepared by immobilizing Protein L (ACTIGEN or BioVision) onto Series S Sensor Chip CM5 (GE Healthcare Japan Corp.) or Series S Sensor Chip CM4 (GE Healthcare Japan Corp.) by the amine coupling method.
(§2) In order to calculate the KD value of each altered antibody for FcγR, kinetic analysis was conducted according to the following method: first, the antibody of interest was captured onto any of these chips and allowed to interact with mFcγR diluted with a running buffer. For the obtained sensorgram, the assay results were globally fit into the 1:1 Langmuir binding model using Biacore Evaluation Software to calculate an association rate constant ka (L/mol/s) and a dissociation rate constant kd (1/s). From these values, the dissociation constant KD (mol/L) was calculated.

Row | Binder | relative mFcγRIII-binding activity (mIgG1 = 1) [fold]
1 | B1 | 1.47
2 | B2 | 3.58
3 | B3 | 1.2
4 | B4 | 1.55
5 | B5 | 1.11
6 | B6 | 2.37
7 | B7 | 0.9
8 | B8 | 1.29
9 | B9 | 1.07
10 | B10 | 1.17
11 | B11 | 1.42
12 | B12 | 1
13 | B13 | 1.48
14 | B14 | 1.11
15 | B15 | 1.51
16 | B16 | 1.12
17 | B17 | 1.37
18 | B18 | 1.22
19 | B19 | 1.02
20 | B20 | 0.56
21 | B21 | 1.44
22 | B22 | 1.06
23 | B23 | 1.05
24 | B24 | 2.27
25 | B25 | 2.84

The binders below were run against T2, mouse FcγRII (mouse, UniProt P08101 30-210) (assay: SPR Biacore 4000, KD ratio).
T2 construct: also called mFcγRII; mFcgRII
T2 sequence: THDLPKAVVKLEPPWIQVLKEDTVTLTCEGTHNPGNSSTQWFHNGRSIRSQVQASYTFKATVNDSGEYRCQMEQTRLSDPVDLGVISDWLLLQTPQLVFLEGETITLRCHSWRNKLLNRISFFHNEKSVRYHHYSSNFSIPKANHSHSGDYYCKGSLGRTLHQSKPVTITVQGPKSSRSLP
Protocol: as §1, §2

Row | Binder | relative mFcγRII-binding activity (mIgG1 = 1) [fold]
26 | B1 | 2.72
27 | B2 | 8.52
28 | B3 | 1.36
29 | B4 | 1.88
30 | B5 | 1.75
31 | B6 | 2.62
32 | B7 | 1.2
33 | B8 | 3.27
34 | B9 | 1.2
35 | B10 | 1.47
36 | B11 | 1.83
37 | B12 | 1.15
38 | B13 | 1.99
39 | B14 | 5.01
40 | B15 | 5.06
41 | B16 | 1.25
42 | B17 | 3.15
43 | B18 | 1.54
44 | B19 | 1.36
45 | B20 | 2.09
46 | B21 | 2.7
47 | B22 | 1.19
48 | B23 | 1.27
49 | B24 | 5.26
50 | B25 | 7.97

Molecular target: T3, mouse FcγRIII extracellular domain with C-terminal His tag (mouse, UniProt P08508 31-215)
T3 construct: Made on the basis of NCBI NP-034318.2; also called mFcγRIII; mFcgRIII
T3 chain: T1 chain
Assay: SPR Biacore T200
Protocol: as §1, §2

Row | Binder | relative mFcγRIII-binding activity (mIgG1 = 1)
51 | B26 | 1.3
52 | B27 | 0.3
53 | B28 | 0.1
54 | B29 | 0.4
55 | B30 | 0.3
56 | B31 | 0.2
57 | B32 | 0.4
58 | B33 | 0.7
59 | B34 | 0.1
60 | B35 | 1.6

The binders below were run against T4, mouse FcγRII extracellular domain with C-terminal His tag (mouse, UniProt P08101 30-210) (assay: SPR Biacore T200).
T4 construct: Made on the basis of NCBI NP-034317.1; also called mFcγRII; mFcgRII
T4 sequence: T2 sequence
Protocol: as §1, §2

Row | Binder | relative mFcγRII-binding activity (mIgG1 = 1)
61 | B26 | 1.8
62 | B27 | 2.8
63 | B28 | 1.5
64 | B29 | 1.2
65 | B30 | 3.5
66 | B31 | 4.5
67 | B32 | 1.2
68 | B33 | 1.6
69 | B34 | 0.5
70 | B35 | 38.6
